Measured values: the supplement of paper PMC11316812
± gives the standard deviation of the averaged measurements.

Key:
MCF7 = assay: percentage of EdU-negative (G0-arrested) nuclei per well, 72 h; higher = more G0 arrest; details: reference: sequence is the full UniProt precursor, the tested protein was the secreted form or ectodomain
hTERT-HMEC = assay: as above; details: reference: sequence is the full UniProt precursor, the tested protein was the secreted form or ectodomain
[1] = protein concentration 0.0055 µM
[2] = protein concentration 0.0225 µM
[3] = protein concentration 0.0354286 µM
[4] = protein concentration 0.354286 µM
[5] = protein concentration 0.0357143 µM
[6] = protein concentration 0.357143 µM
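Also: secreted proteins added to cultured cells, EdU pulse at the end, nuclei found by Hoechst imaging, EdU status from nuclear versus surrounding ring intensity ratio, PBS as neutral control.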

Sequence: MRLLAKIICLMLWAICVAEDCNELPPRRNTEILTGSWSDQTYPEGTQAIYKCRPGYRSLGNVIMVCRKGEWVALNPLRKCQKRPCGHPGDTPFGTFTLTGGNVFEYGVKAVYTCNEGYQLLGEINYRECDTDGWTNDIPICEVVKCLPVTAPENGKIVSSAMEPDREYHFGQAVRFVCNSGYKIEGDEEMHCSDDGFWSKEKPKCVEISCKSPDVINGSPISQKIIYKENERFQYKCNMGYEYSERGDAVCTESGWRPLPSCEEKSCDNPYIPNGDYSPLRIKHRTGDEITYQCRNGFYPATRGNTAKCTSTGWIPAPRCTLKPCDYPDIKHGGLYHENMRRPYFPVAVGKYYSYYCDEHFETPSGSYWDHIHCTQDGWSPAVPCLRKCYFPYLENGYNQNYGRKFVQGKSIDVACHPGYALPKAQTTVTCMENGWSPTPRCIRVKTCSKSSIDIENGFISESQYTYALKEKAKYQCKLGYVTADGETSGSITCGKDGWSAQPTCIKSCDIPVFMNARTKNDFTWFKLNDTLDYECHDGYESNTGSTTGSIVCGYNGWSDLPICYERECELPKIDVHLVPDRKKDQYKVGEVLKFSCKPGFTIVGPNSVQCYHFGLSPDLPICKEQVQSCGPPPELLNGNVKEKTKEEYGHSEVVEYYCNPRFLMKGPNKIQCVDGEWTTLPVCIVEESTCGDIPELEHGWAQLSSPPYYYGDSVEFNCSESFTMIGHRSITCIHGVWTQLPQCVAIDKLKKCKSSNLIILEEHLKNKKEFDHNSNIRYRCRGKEGWIHTVCINGRWDPEVNCSMAQIQLCPPPPQIPNSHNMTTTLNYRDGEKVSVLCQENYLIQEGEEITCKDGRWQSIPLCVEKIPCSQPPQIEHGTINSSRSSQESYAHGTKLSYTCEGGFRISEENETTCYMGKWSSPPQCEGLPCKSPPEISHGVVAHMSDSYQYGEEVTYKCFEGFGIDGPAIAKCLGEKWSHPPSCIKTDCLSLPSFENAIPMGEKKDVYKAGEQVTYTCATYYKMDGASNVTCINSRWTGRPTCRDTSCVNPPTVQNAYIVSRQMSKYPSGERVRYQCRSPYEMFGDEEVMCLNGNWTEPPQCKDSTGKCGPPPPIDNGDITSFPLSVYAPASSVEYQCQNLYQLEGNKRITCRNGQWSEPPKCLHPCVISREIMENYNIALRWTAKQKLYSRTGESVEFVCKRGYRLSSRSHTLRTTCWDGKLEYPTCAKR
- percentage of EdU-negative (MCF7; [1]): 25.1 ± 0.8%
- percentage of EdU-negative (MCF7; protein concentration 0.055 µM): 25.5 ± 2.4%
- percentage of EdU-negative (hTERT-HMEC; [1]): 5.14 ± 0.38%
- percentage of EdU-negative (hTERT-HMEC; protein concentration 0.055 µM): 7.65 ± 0.92%

Sequence: MKLMVLVFTIGLTLLLGVQAMPANRLSCYRKILKDHNCHNLPEGVADLTQIDVNVQDHFWDGKGCEMICYCNFSELLCCPKDVFFGPKISFVIPCNNQ
- percentage of EdU-negative (MCF7; [2]): 25.5 ± 2.2%
- percentage of EdU-negative (MCF7; protein concentration 0.225 µM): 25.5 ± 3.6%
- percentage of EdU-negative (hTERT-HMEC; [2]): 5.85 ± 0.5%
- percentage of EdU-negative (hTERT-HMEC; protein concentration 0.225 µM): 6.71 ± 0.2%

Sequence: MGLFRGFVFLLVLCLLHQSNTSFIKLNNNGFEDIVIVIDPSVPEDEKIIEQIEDMVTTASTYLFEATEKRFFFKNVSILIPENWKENPQYKRPKHENHKHADVIVAPPTLPGRDEPYTKQFTECGEKGEYIHFTPDLLLGKKQNEYGPPGKLFVHEWAHLRWGVFDEYNEDQPFYRAKSKKIEATRCSAGISGRNRVYKCQGGSCLSRACRIDSTTKLYGKDCQFFPDKVQTEKASIMFMQSIDSVVEFCNEKTHNQEAPSLQNIKCNFRSTWEVISNSEDFKNTIPMVTPPPPPVFSLLKISQRIVCLVLDKSGSMGGKDRLNRMNQAAKHFLLQTVENGSWVGMVHFDSTATIVNKLIQIKSSDERNTLMAGLPTYPLGGTSICSGIKYAFQVIGELHSQLDGSEVLLLTDGEDNTASSCIDEVKQSGAIVHFIALGRAADEAVIEMSKITGGSHFYVSDEAQNNGLIDAFGALTSGNTDLSQKSLQLESKGLTLNSNAWMNDTVIIDSTVGKDTFFLITWNSLPPSISLWDPSGTIMENFTVDATSKMAYLSIPGTAKVGTWAYNLQAKANPETLTITVTSRAANSSVPPITVNAKMNKDVNSFPSPMIVYAEILQGYVPVLGANVTAFIESQNGHTEVLELLDNGAGADSFKNDGVYSRYFTAYTENGRYSLKVRAHGGANTARLKLRPPLNRAAYIPGWVVNGEIEANPPRPEIDEDTQTTLEDFSRTASGGAFVVSQVPSLPLPDQYPPSQITDLDATVHEDKIILTWTAPGDNFDVGKVQRYIIRISASILDLRDSFDDALQVNTTDLSPKEANSKESFAFKPENISEENATHIFIAIKSIDKSNLTSKVSNIAQVTLFIPQANPDDIDPTPTPTPTPTPDKSHNSGVNISTLVLSVIGSVVIVNFILSTTI [Q14CN2]
- percentage of EdU-negative (MCF7; [2]): 26.84 ± 0.26%
- percentage of EdU-negative (MCF7; protein concentration 0.225 µM): 30.6 ± 2%
- percentage of EdU-negative (hTERT-HMEC; [2]): 6.239 ± 0.015%
- percentage of EdU-negative (hTERT-HMEC; protein concentration 0.225 µM): 66 ± 6.4%

Sequence: MDGLPGRALGAACLLLLAAGWLGPEAWGSPTPPPTPAAPPPPPPPGSPGGSQDTCTSCGGFRRPEELGRVDGDFLEAVKRHILSRLQMRGRPNITHAVPKAAMVTALRKLHAGKVREDGRVEIPHLDGHASPGADGQERVSEIISFAETDGLASSRVRLYFFISNEGNQNLFVVQASLWLYLKLLPYVLEKGSRRKVRVKVYFQEQGHGDRWNMVEKRVDLKRSGWHTFPLTEAIQALFERGERRLNLDVQCDSCQELAVVPVFVDPGEESHRPFVVVQARLGDSRHRIRKRGLECDGRTNLCCRQQFFIDFRLIGWNDWIIAPTGYYGNYCEGSCPAYLAGVPGSASSFHTAVVNQYRMRGLNPGTVNSCCIPTKLSTMSMLYFDDEYNIVKRDVPNMIVEECGCA
- percentage of EdU-negative (MCF7; [3]): 24.4 ± 0.62%
- percentage of EdU-negative (MCF7; [4]): 29.05 ± 0.099%
- percentage of EdU-negative (hTERT-HMEC; [3]): 5.47 ± 0.17%
- percentage of EdU-negative (hTERT-HMEC; [4]): 8.73 ± 0.18%

Sequence: MCTKTIPVLWGCFLLWNLYVSSSQTIYPGIKARITQRALDYGVQAGMKMIEQMLKEKKLPDLSGSESLEFLKVDYVNYNFSNIKISAFSFPNTSLAFVPGVGIKALTNHGTANISTDWGFESPLFQDTGGADLFLSGVYFTGIIILTRNDFGHPTLKLQDCYAQLSHAHVSFSGELSVLYNSFAEPMEKPILKNLNEMLCPIIASEVKALNANLSTLEVLTKIDNYTLLDYSLISSPEITENYLDLNLKGVFYPLENLTDPPFSPVPFVLPERSNSMLYIGIAEYFFKSASFAHFTAGVFNVTLSTEEISNHFVQNSQGLGNVLSRIAEIYILSQPFMVRIMATEPPIINLQPGNFTLDIPASIMMLTQPKNSTVETIVSMDFVASTSVGLVILGQRLVCSLSLNRFRLALPESNRSNIEVLRFENILSSILHFGVLPLANAKLQQGFPLSNPHKFLFVNSDIEVLEGFLLISTDLKYETSSKQQPSFHVWEGLNLISRQWRGKSAP [Q8NFQ6]
- percentage of EdU-negative (MCF7; [5]): 25.1 ± 3.5%
- percentage of EdU-negative (MCF7; [6]): 31.5 ± 2.8%
- percentage of EdU-negative (hTERT-HMEC; [5]): 5.01 ± 0.62%
- percentage of EdU-negative (hTERT-HMEC; [6]): 21.7 ± 0.58%
